According to the supplement of paper PMC9170038:

Test system: MS2 coat protein
Assay: apparent KD of MS2 coat protein; higher = weaker reporter binding
Conditions: Eterna round: R107
Summary of the method: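 Designed RNA switches, transcribed on-chip from Illumina sequencing clusters, were titrated with SNAP-549-labelled MS2 coat protein from 0.7 or 1.5 nM to 3 µM in twofold steps. The solution was 100 mM Tris-HCl pH 7.5, 80 mM KCl, 4 mM MgCl2, with constant ligand or without it. Apparent KD is the median over each design's normalised cluster binding-curve fits.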

[1] = input ligand: theophylline 20 uM
[2] = input ligand: theophylline 2 mM
[3] = input ligand: tryptophan 2.4 mM

With “CAAGAGUUGUACAUUGUGAGGCGUCGGGAACGAGGACCGGUACGGCCGCCACUCGAAAAUUAACAUGAGGAUCACCCAUGUACAC [theeternabot_exclusion_MS2_Trp_A_35]” the “apparent KD of MS2 coat protein” value (input ligand: arginine 13.2 mM) was 36.1 nM, the “apparent KD of MS2 coat protein” value [1] was 72.7 nM and the “apparent KD of MS2 coat protein” value [2] was 82.8 nM.
In the case of “CAAUAAGUACCGGUCCUCAGAUCCUCAUGACGAGGACCGGUACGGCCGCCACUCGAAACAUGAGGAUCACCCAUGUAAUAAUAAU [Brourdmod01]”, the “apparent KD of MS2 coat protein” value (input ligand: arginine 13.2 mM) is reported as 15.3 nM, the “apparent KD of MS2 coat protein” value [1] is reported as 31.4 nM and the “apparent KD of MS2 coat protein” value [2] is reported as 24.2 nM.
With “CACAGUGCGAAUUUGAAUUCGCACGAUCCUCGAGGACCGGUACGGCCGCCACUCGCGCGGGUCGUACAUGAGGAUCACCCAUGUC [Quermavebe]” the “apparent KD of MS2 coat protein” value (input ligand: arginine 13.2 mM) was 25 nM, the “apparent KD of MS2 coat protein” value [1] was 233 nM and the “apparent KD of MS2 coat protein” value [2] was 1190 nM.
“CACGCACGAUCGGCCGCCACUCAUGUAGCUUACAUGAGGAUCACCCAUGUAUUUUCUUUCUUAUAGAGGACCGGGAUCGUGCGUG [#04 Same State - Tryptophan B]” was tested, and the “apparent KD of MS2 coat protein” value (input ligand: arginine 13.2 mM) was 21 nM, the “apparent KD of MS2 coat protein” value [1] was 28.2 nM and the “apparent KD of MS2 coat protein” value [2] was 24.5 nM.
“CACGGACGAGUGGAUCACCCUUGUAAUAACCGAGGACCGGUACGGCCGCCACUCGAAAACCGUGACCUGUACGAAAAGUGCAGGA” was tested, and the “apparent KD of MS2 coat protein” value (input ligand: arginine 13.2 mM) was 14.2 nM, the “apparent KD of MS2 coat protein” value (input ligand: none) was 26.5 nM and the “apparent KD of MS2 coat protein” value [1] was 148 nM. The “apparent KD of MS2 coat protein” value [2] was 466 nM and the “apparent KD of MS2 coat protein” value [3] was 195 nM.
With “CACUUCAUGUGAGAUACCAGUGCCUUACAUGAGGAUCACCCAUGUCGUAAUGUGGAGAAGCACCCUUGGCAGCUCGCUUCGAGUG [Theo B SS t6]” the “apparent KD of MS2 coat protein” value (input ligand: arginine 13.2 mM) was 57.2 nM, the “apparent KD of MS2 coat protein” value [1] was 91.6 nM and the “apparent KD of MS2 coat protein” value [3] was 87.6 nM.
“CAGCACAUGAGGAUCACCCAUGUGAGGGAUACCAGCUCAGGCGUGGGCCCUUGGCAGCUCUGUGGCUGACGAAAGUCAGCCUCUG [#18 SameState-TheophyllineA]” was tested, and the “apparent KD of MS2 coat protein” value (input ligand: arginine 13.2 mM) was 13.4 nM, the “apparent KD of MS2 coat protein” value (input ligand: none) was 14.6 nM and the “apparent KD of MS2 coat protein” value [1] was 17.7 nM. The “apparent KD of MS2 coat protein” value [2] was 15.4 nM and the “apparent KD of MS2 coat protein” value [3] was 13.4 nM.
In the case of “CAGGUUAGGGCGGCCGCCACUGUGGCUACGGUACAUGAGGAUCACCCAUGUUUGUGGUUGAUCUACAGGACCGGGCCCUGACACG [Matidier]”, the “apparent KD of MS2 coat protein” value (input ligand: arginine 13.2 mM) is reported as 48.9 nM, the “apparent KD of MS2 coat protein” value (input ligand: none) is reported as 236 nM and the “apparent KD of MS2 coat protein” value [1] is reported as 145 nM. For the same sequence, the “apparent KD of MS2 coat protein” value [2] was 665 nM and the “apparent KD of MS2 coat protein” value [3] was 272 nM.
For “CAUGUUAGGGCGGCCGCCACUGUGGCUACGGUACAUGAGGAUCACCCAUGUUUGUGGUUGAUCUACAGGACCGGGCCCUGACACG [Erarusge]”, the “apparent KD of MS2 coat protein” value (input ligand: arginine 13.2 mM) was 127 nM, the “apparent KD of MS2 coat protein” value (input ligand: none) was 187 nM and the “apparent KD of MS2 coat protein” value [1] was 578 nM. For the same sequence, the “apparent KD of MS2 coat protein” value [2] was 679 nM and the “apparent KD of MS2 coat protein” value [3] was 209 nM.
“CAUUAAGUAACUGAUACCAGUGUACUGACAUGAGGAUCACCCAUGUUGGGUUUUGUUGUACACCCUUGGCAGCAGAAUCUUAAUG [AstrosExyTheB#3]” was tested, and the “apparent KD of MS2 coat protein” value (input ligand: arginine 13.2 mM) was 44.7 nM, the “apparent KD of MS2 coat protein” value [1] was 70.2 nM and the “apparent KD of MS2 coat protein” value [3] was 62.2 nM.
In the case of “CCCAACAUGAGGAUCACCCAUGUUCCGGGUCGAGGACCGGUACGGCCGCCACUCGGUAUGAUGGGUGUGCAGCGUAUCUGCACCA [theeternabot_sameState_MS2_Trp_A_22]”, the “apparent KD of MS2 coat protein” value (input ligand: arginine 13.2 mM) is reported as 30.9 nM, the “apparent KD of MS2 coat protein” value [1] is reported as 61.1 nM and the “apparent KD of MS2 coat protein” value [2] is reported as 68.4 nM.
With “CCCACAAGCACGGCCGCCACUAUAUUAAUUACUGUCCUAGAACAUGAGGAUCACCCAUGUUAAUGUAGGACCGGGUGCGGGCCCG [theeternabot_exclusion_MS2_Trp_B_7]” the “apparent KD of MS2 coat protein” value (input ligand: arginine 13.2 mM) was 9.21 nM, the “apparent KD of MS2 coat protein” value [1] was 11.5 nM and the “apparent KD of MS2 coat protein” value [2] was 9.46 nM.
With “CCCAGUCAUAACAAAGCAAAUAUACUCGAAGGAGCGUCAUAGUAGGCAGGUAGGUCGCGAGACAUGAGGAUCACCCAUGUAGAGA [zrzmullin]” the “apparent KD of MS2 coat protein” value (input ligand: arginine 13.2 mM) was 20.1 nM, the “apparent KD of MS2 coat protein” value (input ligand: none) was 31.8 nM and the “apparent KD of MS2 coat protein” value [1] was 33.2 nM. For the same sequence, the “apparent KD of MS2 coat protein” value [2] was 39.2 nM and the “apparent KD of MS2 coat protein” value [3] was 35.1 nM.
For “CCCAGUCAUAGCAGGGCAAAUAUACUCGAAGGAGCGUCAUAGUAGGCAGGUAGGUCGCGAGACAUGAGGAUCACCCAUGUAGAGA [cccmullin]”, the “apparent KD of MS2 coat protein” value (input ligand: arginine 13.2 mM) was 33.6 nM, the “apparent KD of MS2 coat protein” value (input ligand: none) was 52.3 nM and the “apparent KD of MS2 coat protein” value [1] was 67 nM. For the same sequence, the “apparent KD of MS2 coat protein” value [2] was 44.2 nM and the “apparent KD of MS2 coat protein” value [3] was 44.8 nM.
“CCCAGUUAUAUCAAAGGAAUUAUACUCGAAGGAGCGUCAUAGUAGGCAGGUAGGUCGCGAGACAUGAGGAUCACCCAUGUAGAGA [pxpmullin]” was tested, and the “apparent KD of MS2 coat protein” value (input ligand: arginine 13.2 mM) was 37.6 nM, the “apparent KD of MS2 coat protein” value (input ligand: none) was 51.6 nM and the “apparent KD of MS2 coat protein” value [1] was 58.4 nM. For the same sequence, the “apparent KD of MS2 coat protein” value [2] was 34.5 nM and the “apparent KD of MS2 coat protein” value [3] was 30.4 nM.
“CCGUUUUAUGGCGACAUAGGGCGGACUGAAGGAGCGGUGAAUAAGCCAGGUAGGUCGCAGAGAUCCACAUGAGGAUCACCCAUGU [!0.aD]” was tested, and the “apparent KD of MS2 coat protein” value (input ligand: arginine 13.2 mM) was 322 nM, the “apparent KD of MS2 coat protein” value (input ligand: none) was 52.6 nM and the “apparent KD of MS2 coat protein” value [1] was 62.2 nM. For the same sequence, the “apparent KD of MS2 coat protein” value [2] was 63.5 nM and the “apparent KD of MS2 coat protein” value [3] was 77.5 nM.
With “CCUAACCGAUCGGCCGCCACUGACCGGUACCUCUUCGAAACCCGCCACAUGAGGAUCACCCAUGUCAGGACCGGGAUUGCACAGG [Inxeus]” the “apparent KD of MS2 coat protein” value (input ligand: arginine 13.2 mM) was 14.4 nM, the “apparent KD of MS2 coat protein” value (input ligand: none) was 17.2 nM and the “apparent KD of MS2 coat protein” value [1] was 23 nM. For the same sequence, the “apparent KD of MS2 coat protein” value [2] was 17.8 nM and the “apparent KD of MS2 coat protein” value [3] was 38.1 nM.
